In PMC6309448 (Nature, 2018):

Molecular target: T1, outer membrane usher FimD (Escherichia coli, UniProt P30130 46-878)
T1 sequence: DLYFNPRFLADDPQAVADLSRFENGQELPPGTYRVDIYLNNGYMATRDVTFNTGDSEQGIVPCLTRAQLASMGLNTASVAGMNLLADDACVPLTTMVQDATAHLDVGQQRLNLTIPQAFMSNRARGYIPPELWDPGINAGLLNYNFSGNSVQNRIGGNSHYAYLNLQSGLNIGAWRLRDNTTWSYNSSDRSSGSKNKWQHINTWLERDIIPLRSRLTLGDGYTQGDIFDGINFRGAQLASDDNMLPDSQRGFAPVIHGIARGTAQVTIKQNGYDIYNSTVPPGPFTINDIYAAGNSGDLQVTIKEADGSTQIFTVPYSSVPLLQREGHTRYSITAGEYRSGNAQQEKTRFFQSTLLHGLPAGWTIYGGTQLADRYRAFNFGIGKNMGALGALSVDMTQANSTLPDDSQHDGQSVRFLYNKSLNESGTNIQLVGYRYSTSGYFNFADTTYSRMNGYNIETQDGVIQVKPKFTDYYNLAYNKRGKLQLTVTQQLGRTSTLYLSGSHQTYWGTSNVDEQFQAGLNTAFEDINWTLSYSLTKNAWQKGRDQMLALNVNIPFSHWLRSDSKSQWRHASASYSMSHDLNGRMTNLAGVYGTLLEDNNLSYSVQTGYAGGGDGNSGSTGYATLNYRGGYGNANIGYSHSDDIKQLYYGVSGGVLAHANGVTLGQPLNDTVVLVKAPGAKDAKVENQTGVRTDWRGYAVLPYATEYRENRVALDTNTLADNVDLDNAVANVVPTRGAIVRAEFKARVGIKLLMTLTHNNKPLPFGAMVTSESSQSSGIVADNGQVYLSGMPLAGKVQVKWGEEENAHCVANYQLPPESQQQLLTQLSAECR
Assay: cryo-EM structure

B1: FimC chaperone (natural protein)
chain: GVALGATRVIYPAGQKQEQLAVTNNDENSTYLIQSWVENADGVKDGRFIVTPPLFAMKGKKENTLRILDATNNQLPQDRESLFWMNVKAIPSMDKSKLTENTLQLAIISRIKLYYRPAKLALPPDQAAEKLRFRRSANSLTLINPTPYYLTVTELNAGTRVLENALVPPMGESTVKLPSDAGSNITYRTINDYGALTPKMTGVME
binding result: binds

B2: pilus subunit FimG (natural protein)
chain: ADVTITVNGKVVAKPCTVSTTNATVDLGDLYSFSLMSAGAASAWHDVALELTNCPVGTSRVTASFSGAADSTGYYKNQGTAQNIQLELQDDSGNTLNTGATKTVQVDDSSQSAHFPLQVRALTVNGGATQGTIQAVISITYTYS
binding result: binds
